The source of these data is patent publication US20110300138A1 (published 2011).

Test [1] addresses T1, human TSH receptor (full length), coated on tubes (human, UniProt P16473 22-764).
T1 construct: TSHR coated tubes as described in WO2004/050708A2; Exact preparation on the tubes is not detailed here; also called thyroid stimulating hormone receptor
Nature of the test: competition with 125I-K1-18 IgG on TSHR coated tubes; 3 µg/mL, diluted in HBD serum pool. As to the method:
(§1) Binding inhibition assays were carried out using TSHR coated tubes as described in WO2004/050708A2. […] After aspiration, the tubes were washed and 100 μL of ¹²⁵I-labelled protein (5×10⁴ cpm) added and incubated for 1 hour at room temperature with shaking. The tubes were then aspirated, washed and counted in a gamma counter. Inhibition of labelled protein binding was calculated as 100×[1−(cpm bound in the presence of test material/cpm bound in the presence of control material)].

Test [2] addresses T1, human TSH receptor (full length), …. As to the kind of experiment: competition with 125I-K1-18 IgG on TSHR coated tubes; 0.003 µg/mL, diluted in assay buffer. As to the method:
as §1

Test [3] shares this target. As to the kind of experiment: competition with 125I-K1-18 IgG on TSHR coated tubes; 30 µg/mL, diluted in HBD serum pool. As for the experimental part:
as §1

Test [4] shares this target. Nature of the test: competition with 125I-K1-18 IgG on TSHR coated tubes; 0.1 µg/mL, diluted in HBD serum pool. As to the method:
as §1

The target is the same in test [5]. Nature of the test: competition with 125I-K1-18 IgG on TSHR coated tubes; 0.3 µg/mL, diluted in assay buffer. As for the experimental part:
as §1

The target is the same in test [6]. As to the kind of experiment: competition with 125I-K1-18 IgG on TSHR coated tubes; 30 µg/mL, diluted in assay buffer. As to the method:
as §1

Test [7] has the same target. Nature of the test: competition with 125I-K1-18 IgG on TSHR coated tubes; 1 µg/mL, diluted in HBD serum pool. As for the experimental part:
as §1

The target is the same in test [8]. As to the kind of experiment: competition with 125I-K1-18 IgG on TSHR coated tubes; 100 µg/mL, diluted in HBD serum pool. As for the experimental part:
as §1

Test [9] has the same target. Nature of the test: competition with 125I-K1-18 IgG on TSHR coated tubes; 0.001 µg/mL, diluted in assay buffer. As to the method:
as §1

The target is the same in test [10]. Nature of the test: competition with 125I-K1-18 IgG on TSHR coated tubes; 1 µg/mL, diluted in assay buffer. As to the method:
as §1

Test [11] shares this target. Nature of the test: competition with 125I-K1-18 IgG on TSHR coated tubes; 0.01 µg/mL, diluted in HBD serum pool. As to the method:
as §1

Test [12] shares this target. Nature of the test: competition with 125I-K1-18 IgG on TSHR coated tubes; 0.3 µg/mL, diluted in HBD serum pool. As for the experimental part:
as §1

Test [13] has the same target. As to the kind of experiment: competition with 125I-K1-18 IgG on TSHR coated tubes; 0.01 µg/mL, diluted in assay buffer. As for the experimental part: as §1
Test [14] shares this target. Nature of the test: competition with 125I-K1-18 IgG on TSHR coated tubes; 0.003 µg/mL, diluted in HBD serum pool. As to the method: as §1
For test [15] the target is unchanged. As to the kind of experiment: competition with 125I-K1-18 IgG on TSHR coated tubes; 0.1 µg/mL, diluted in assay buffer. As to the method:
as §1

For test [16] the target is unchanged. As to the kind of experiment: competition with 125I-K1-18 IgG on TSHR coated tubes; 3 µg/mL, diluted in assay buffer. As for the experimental part: as §1
The target is the same in test [17]. As to the kind of experiment: competition with 125I-K1-18 IgG on TSHR coated tubes; 0.001 µg/mL, diluted in HBD serum pool. As for the experimental part:
as §1

The target is the same in test [18]. As to the kind of experiment: competition with 125I-K1-18 IgG on TSHR coated tubes; 0.03 µg/mL, diluted in assay buffer. As to the method: as §1
The target is the same in test [19]. Nature of the test: competition with 125I-K1-18 IgG on TSHR coated tubes; 10 µg/mL, diluted in assay buffer. As to the method:
as §1

Test [20] has the same target. As to the kind of experiment: competition with 125I-K1-18 IgG on TSHR coated tubes; 100 µg/mL, diluted in assay buffer. As to the method:
as §1

Test [21] shares this target. Nature of the test: competition with 125I-K1-18 IgG on TSHR coated tubes; 0.03 µg/mL, diluted in HBD serum pool. As to the method:
as §1

The target is the same in test [22]. Nature of the test: competition with 125I-K1-18 IgG on TSHR coated tubes; 10 µg/mL, diluted in HBD serum pool. As for the experimental part: as §1

B1: K1-70 Fab (Fab, V domains shown)
VH: EVQLVQSGAEVKKPGQSLKISCKASGYSLTDNWIGWVRQKPGKGLEWMGIIYPGDSDTRYSPSFQGQVTISADKSINTAYLQWSSLKASDTAIYYCVGLDWNYNPLRYWGPGTLVTVSS
VL: QSVLTQPPSVSAAPGQKVTISCSGSSSDIGSNYVSWYQQFPGTAPKLLIYDNNKRPSAIPDRFSGSKSGTSATLGITGLQTGDEADYYCGTWDSRLGIAVFGGGTQLTVLG
Regarding B1, the “Inhibition of binding (%)” value in [1] stood at 92.8%; in test [2], 4.1%; in test [3], 91.8%; in test [4], 75.2%; in test [5], 89.6%; in [6] it was 92.2%. Moreover, the “Inhibition of binding (%)” value in test [7] was 92.1%; in test [8], 92.5%; in test [9] it was -3.9%; in test [10], 91%; in [11], 16.2%; in [12], 88.1%. For the same molecule, the “Inhibition of binding (%)” value is 25.6% in [13]; 3.7% in test [14]; 87.6% in test [15]; 91.1% in test [16]; -3.2% in test [17]; 68.8% in test [18]. In addition, the “Inhibition of binding (%)” value in test [19] came to 92.4%; in test [20], 93.3%; in [21], 35%; in [22], 92.6%.
